Reference: patent US20060019342A1 (AstraZeneca / MedImmune, published 2006)
Numbering of substitutions follows the chain as printed. In names and notes the source's numbering stands. Values belong to the binder of their own block, whether it stands above or below them.

What was measured:
EphA2-Fc [1] = biological target: T1, EphA2-Fc (UniProt P29317 25-534, limits assumed); assay: SPR (BIAcore 3000), EphA2-Fc immobilized on CM5 chip, soluble IgG, 1:1 Langmuir fit
T1 construct: Amine-coupled to a CM5 chip; not shown: Fc part
T1 sequence (P29317 25-534 limits assumed): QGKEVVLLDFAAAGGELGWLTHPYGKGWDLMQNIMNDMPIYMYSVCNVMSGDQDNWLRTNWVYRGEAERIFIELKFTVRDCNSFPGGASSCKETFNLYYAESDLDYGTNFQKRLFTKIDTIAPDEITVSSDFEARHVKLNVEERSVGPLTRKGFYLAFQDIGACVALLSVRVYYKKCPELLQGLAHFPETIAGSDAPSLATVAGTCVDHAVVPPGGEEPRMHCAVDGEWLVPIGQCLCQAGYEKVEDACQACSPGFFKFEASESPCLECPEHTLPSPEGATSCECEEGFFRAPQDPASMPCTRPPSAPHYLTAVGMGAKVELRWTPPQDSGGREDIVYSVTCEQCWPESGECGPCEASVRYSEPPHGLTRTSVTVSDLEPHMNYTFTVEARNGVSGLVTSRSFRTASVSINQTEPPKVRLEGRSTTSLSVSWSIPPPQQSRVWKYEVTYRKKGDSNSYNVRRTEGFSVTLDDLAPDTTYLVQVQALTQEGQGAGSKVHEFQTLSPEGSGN
Description: (§1) The interaction of soluble 12G3, 4C10, 12G3/Mut and 4C10/Mut with immobilized EphA2-Fc was monitored by surface plasmon resonance detection using a BIAcore 3000 instrument (Pharmacia Biosensor, Uppsala, Sweden). EphA2-Fc was coupled to the dextran matrix of a CM5 sensor chip (Pharmacia Biosensor) using an Amine Coupling Kit as described (Johnsson et al. supra) at a surface density of 162 RU. IgGs were diluted in 0.01 M HEPES pH 7.4 containing 0.15 M NaCl, 3 mM EDTA and 0.005% P20. All subsequent dilutions were made in the same buffer. All binding experiments were performed at 25° C. with IgG concentrations typically ranging from 100 nM to 0.2 nM at a flow rate of 75 μL/min; data were collected for approximately 20 min and one 1-min pulse of 1M NaCl, 50 mM NaOH was used to regenerate the surfaces. IgGs were also flowed over an uncoated cell and the sensorgrams from these blank runs subtracted from those obtained with EphA2-Fc-coupled chips. Data were fitted to a 1:1 Langmuir binding model. This algorithm calculates both the kₒₙ and the koff, from which the apparent equilibrium dissociation constant, KD, is deduced as the ratio of the two rate constants (koff/kₒₙ).

EphA2-Fc [2] = biological target: T1, EphA2-Fc; assay: SPR (BIAcore 3000), EphA2-Fc immobilized on CM5 chip, soluble IgG, 1:1 Langmuir fit; below the limit of detection
Description: as §1

- kon (EphA2-Fc [1]): 187000 M⁻¹ s⁻¹
- Kd (EphA2-Fc [2]): < 0.027 nM
- koff (EphA2-Fc [2]): < 5e-06 s⁻¹
B1: 12G3/M, heavy chain modified 12G3 (S60A/A61D, Kabat) (antibody, human IgG1, V domains shown)
VH: QMQLVQSGPEVKKPGTSVKVSCKASGFTFDDYSMNWVRQARGQRLEWIGFIRNKANDYTTEYADSVKGRVTITRDMSTSTAYMELSSLRSEDTAVYYCARYPRHHAMDSWGQGTSVTVSS
VL: DIQMTQSPSSLSASVGDRVTITCRASQSISNNLHWYQQKPGKAPKLLIKYAFQSISGVPSRFSGSGSGTDFTFTISSLQPEDFATYYCQQANSWPLTFGGGTKVEIK
notes: The light chain is unaltered; Human IgG1 / kappa; also called 12G3/Mut

- Kd (EphA2-Fc [1]): 0.095 nM
- koff (EphA2-Fc [1]): 9.75e-06 s⁻¹
- kon (EphA2-Fc [1]): 102000 M⁻¹ s⁻¹
B2: 4C10 humanized anti-EphA2 monoclonal antibody (antibody, human IgG1, V domains shown)
VH: B1 VH with N35T, D57A, A63S, D64A
VL: B1 VL with A91S
notes: Expressed in HEK 293 cells as soluble human IgG1 (human gamma 1 heavy chain, human kappa light chain)

- Kd (EphA2-Fc [1]): 0.034 nM
- koff (EphA2-Fc [1]): 8.49e-06 s⁻¹
- kon (EphA2-Fc [1]): 246000 M⁻¹ s⁻¹
B3: 12G3 humanized anti-EphA2 monoclonal antibody (antibody, human IgG1, V domains shown)
VH: B1 VH with A63S, D64A
VL: B1 VL
notes: Expressed as soluble human IgG1 (human gamma 1, human kappa)

- Kd (EphA2-Fc [1]): 0.093 nM
- koff (EphA2-Fc [1]): 5.96e-06 s⁻¹
- kon (EphA2-Fc [1]): 64100 M⁻¹ s⁻¹
B4: 4C10/M, heavy chain modified 4C10 (S60A/A61D, Kabat) (antibody, human IgG1, V domains shown)
VH: B1 VH with N35T, D57A
VL: B1 VL with A91S
notes: The light chain is unaltered; Human IgG1 / kappa; also called 4C10/Mut
